The values below come from paper PMC5098442.

In assay [1] the target is recombinant soluble TACE ECD (human) (UniProt P78536). The assay can be described thus: SPR. (SPR reads the build-up and loss of mass on a sensor chip optically.)
Assay [2] deals with soluble TACE M-domain (wild type) (Homo sapiens) (UniProt P78536). Briefly: SPR.

As to MEDI3622 (antibody), the values for the Kd in assay [1] and in assay [2] were 2 nM and 2.3 nM, respectively.
